These results are taken from article PMC8609364, “A Selective Tether Recruits Activated Response Regulator CheB to Its Chemoreceptor Substrate” (mBio, 2021).

For one assay, the system named is Tar4EΔpp and Tar4QΔpp. Kind of assay: CheB binding to pentapeptide-lacking Tar, 4E and 4Q (biolayer interferometry). The arrangement: species or system E. coli. On the procedure: We determined the kinetics of association and dissociation of methylesterase/deamidase CheB in its low- and high-activity form with the E. coli aspartate chemoreceptor Tar using biolayer interferometry ([22], [23]) and isolated receptor homodimers in Nanodiscs ([24], [25]). Apparent rate constants of association and dissociation were derived from global fits of time courses for binding and release (see Fig. S1 in the supplemental material). Equilibrium dissociation constants were calculated from those apparent rate constants.
E. coli CheB and Salmonella CheB D56C/C207S/C309S and D56C/S164A/C207S/C309S were purified as described previously ([11]). CheBC (amino acids [aa] 153 to 349) was purified using the procedure of West et al. ([40]), except that Bio-Gel P-60, was not used. […] The extent of modification was 59% for the former and 60% for the latter determined by reversed phase chromatography essentially as described previously ([26]) and confirmed by Nano LC-Nanospray QTQF mass spectroscopy. […]
Kinetics of CheB association and dissociation with Nanodisc-embedded Tar biotinylated at L378C were determined using biolayer interferometry ([22], [23]) as measured by a BLItz instrument (ForteBio, Menlo Park, CA, USA) and described in reference. […]
On the technique in general: Biolayer interferometry detects binding as a change in optical thickness at a sensor tip.

Assay [1] concerns the target Tar4Q L378C, E. coli aspartate chemoreceptor Tar, all-glutaminyl form with carboxyl-terminal pentapeptide, homodimer in Nanodiscs (E. coli) (UniProt P07017). The experiment in a line: BLI; BLItz; biotinylated Tar homodimers in Nanodiscs held on an avidin sensor tip, CheB or CheBC in solution; 50 mM Tris-HCl pH 7.5, 10% glycerol, 5 mM MgCl2, 50 mM KCl, 2% BSA, 2 mM DTT; global fit, apparent rate constants, KD calculated from kon and koff.

Assay [2] deals with Tar4E L378C, E. coli aspartate chemoreceptor Tar, all-glutamyl form with carboxyl-terminal pentapeptide, homodimer in Nanodiscs (E. coli) (UniProt P07017). Described as above.
Assay [3] deals with Tar4EΔpp-6H L378C, E. coli Tar lacking the carboxyl-terminal pentapeptide, all-glutamyl form, homodimer in … (E. coli, UniProt P07017 1-553, L378C, biotinylated at L378C). The experiment in a line: SPR. A general note: In SPR one partner is held on a chip, and binding of the other changes the refractive index at the surface.
In assay [4] the target is Tar4QΔpp-6H L378C, E. coli Tar lacking the carboxyl-terminal pentapeptide, all-glutaminyl form, homodimer in … (E. coli, UniProt P07017 1-553, L378C, biotinylated at L378C). The experiment in a line: SPR.
Assay [5] concerns the target Tar4Q L378C, E. coli aspartate chemoreceptor Tar, all-glutaminyl form with carboxyl-terminal pentapeptide, … (E. coli, UniProt P07017 1-553, L378C, biotinylated at L378C). Kind of assay: SPR.
Assay [6] deals with Tar4E L378C, E. coli aspartate chemoreceptor Tar, all-glutamyl form with carboxyl-terminal pentapeptide, … (E. coli, UniProt P07017 1-553, L378C, biotinylated at L378C). Kind of assay: SPR.

B1: methylesterase/deamidase CheB from E. coli, low-activity, unphosphorylated form (enzyme, UniProt P07330 1-349, looked up)
chain: MSKIRVLSVDDSALMRQIMTEIINSHSDMEMVATAPDPLVARDLIKKFNPDVLTLDVEMPRMDGLDFLEKLMRLRPMPVVMVSSLTGKGSEVTLRALELGAIDFVTKPQLGIREGMLAYNEMIAEKVRTAAKASLAAHKPLSAPTTLKAGPLLSSEKLIAIGASTGGTEAIRHVLQPLPLSSPALLITQHMPPGFTRSFADRLNKLCQIGVKEAEDGERVLPGHAYIAPGDRHMELSRSGANYQIKIHDGPAVNRHRPSVDVLFHSVAKQAGRNAVGVILTGMGNDGAAGMLAMRQAGAWTLAQNEASCVVFGMPREAINMGGVCEVVDLSQVSQQMLAKISAGQAIRI
notes: CheB methylesterase/deamidase of E. coli, unphosphorylated, from plasmid pCW/cheB; measured with 2 mM DTT in the buffer; also called low-activity CheB; unmodified CheB; source: E. coli K-12 RP3098 with pCW/cheB, purified
Take B1: the “preference for substrate (4Q) versus product (4E) form” value in the assay on Tar4EΔpp and Tar4QΔpp (Tar4QΔpp versus Tar4EΔpp) was “not significantly different”. Also, the “fold weaker than binding to pentapeptide / pentapeptide-bearing receptor” value in the assay on Tar4EΔpp and Tar4QΔpp (ratio of KD, Tar4Δpp versus pentapeptide-bearing) is “approximately fourfold”. Besides, the Kd was 160 µM in assay [1] and 230 µM in assay [2].

B2: CheBC, catalytic domain of E. coli CheB lacking the regulatory domain and linker (domain or fragment)
chain: LSSEKLIAIGASTGGTEAIRHVLQPLPLSSPALLITQHMPPGFTRSFADRLNKLCQIGVKEAEDGERVLPGHAYIAPGDRHMELSRSGANYQIKIHDGPAVNRHRPSVDVLFHSVAKQAGRNAVGVILTGMGNDGAAGMLAMRQAGAWTLAQNEASCVVFGMPREAINMGGVCEVVDLSQVSQQMLAKISAGQAIRI
Consider B2, for which the Kd in assay [3] amounted to 660 µM; in assay [4] it was 1200 µM; in assay [5], 1400 µM; in assay [6] it was 590 µM.
